Positions count from the first letter of the chain named. Names may count otherwise.
Key:
[1] = target: unanchored wild-type K63-linked di-Ub (UniProt P0CG48); test: cell-based or functional assay
[2] = target: donor ubiquitin (Ub^D), from His-TEV-Ub^WT (UniProt P0CG48 1-76, in the crystal: G76 isopeptide-linked to K92 of UBE2K); test: crystal structure

B1: UBE2K^WT (enzyme)
chain: MANIAVQRIKREFKEVLKSEETSKNQIKVDLVDENFTELRGEIAGPPDTPYEGGRYQLEIKIPETYPFNPPKVRFITKIWHPNISSVTGAICLDILKDQWAAAMTLRTVLLSLQALLAAAEPDDPQDAVVANQYKQNPEMFKQTARLWAHVYAGAPVSSPEYTKKIENLCAMGFDRNAVIVALSSKSWDVETATELLLSN
B1 was tested, and the “k cat/K m of tri-Ub formation, K63-Ub2 as acceptor” value [1] was 418 M⁻¹ s⁻¹.

B2: UBE2K^C92K,K97R,D124C,C170S (enzyme)
chain: B1 chain with C92K, K97R, D124C, C170S
B2: binds [2].

— publication PMC8964413 (Nature chemical biology, 2022)
